This data set deals with MS2 coat protein. As to the kind of experiment: apparent KD of MS2 coat protein; designed switch direction (-1 OFF switch, 1 ON switch): -1; higher = weaker reporter binding. The procedure, abridged: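 An oligonucleotide input, 200 uM small-molecule ligand, or no input was present during titration of SNAP-549-labelled MS2 coat protein, which was doubled from 0.7 or 1.5 nM to 3 µM. Designed RNA switches had been transcribed on Illumina chips by stalled E. coli RNA polymerase. Apparent KD per design is the median over clusters of curves fitted to normalised cluster fluorescence.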

[1] abbreviates: Eterna round: R95, input ligand: microRNA oligo, concentration not stated.
Where [2] appears, read: input ligand: microRNA oligo, concentration not stated.
Where [3] appears, read: Eterna round: R95, input ligand: FMN 200 uM.
Setting [4] is: Eterna round: R95, input ligand: none.

In the case of “CUUGUUUAAGUGAGGAUAUACUGUUAGUAAUGAUUGUAGAAGGUACAUGAGGAUCACCCAUGUUUAUUUAUAUU [JR_BME4_Sub042] (puzzle: Brourd's mod of Exclusion 4)”, the “apparent KD of MS2 coat protein” value under setting [1] was determined as 16.4 nM.
Regarding “CUUGUUUAUGUAGGAUAUGCCUGGCGUGCCUUUGCAGAAGGACAUGAGGAUCACCCAUGUAACAUGAGGCUCACCCAUGUCGCG [salish99_ExNG1_r04_105] (Eterna round: R96, puzzle: Exclusion NG 1)”, the “apparent KD of MS2 coat protein” value is, setting by setting: (input ligand: FMN 200 uM) 293 nM; under setting [2], 213 nM; (input ligand: none) 327 nM.
Take “CUUUAGCAAGCGAGAUCCCACAUGAGGAUCACCCAUGUGCAUCCAGAAUUACUGGGUGCAAAAGCUCGUCUUAUAUC [mod-Eli newdang-1b] (Eterna round: R97, puzzle: Sensor, turn-off variant 1)”: the “apparent KD of MS2 coat protein” value runs as follows: (input ligand: FMN 200 uM) 58.4 nM; (input ligand: none) 62.6 nM.
As to “CUUUGCACGCUGCGGUCCUACAUGAGGAUCACCCAUGUGGUCUGGUGGCGUGGGUCGCCGGACUUGGCUCGUCUUGU [salish99_S_TOV1_R5_041] (Eterna round: R97, puzzle: Sensor, turn-off variant 1)”, the “apparent KD of MS2 coat protein” value was 18.2 nM (input ligand: FMN 200 uM) and 18.8 nM (input ligand: none).
For “CUUUUGUCAGGAUAUCGUGCAUACAACGAAAGUUCUAUGUGCGAGAAGGGACAUGAGGAUCACCCAUGUUACGG [Omei Ex4 A6] (Eterna round: R97, puzzle: Exclusion 4)”, the “apparent KD of MS2 coat protein” value (input ligand: FMN 200 uM) is 175 nM and the “apparent KD of MS2 coat protein” value (input ligand: none) is 677 nM.
As for “CUUUUGUGAGGAUAUCAGUAGUAAAAAAAUAAAAUUACUUCUGAGAAGGCACAUGAGGAUCACCCAUGUUCCUC [salish99_ex4_r3_027] (puzzle: Exclusion 4)”, the “apparent KD of MS2 coat protein” value under setting [1] is 37.4 nM.
On the same count and under the same terms, the figure for “CUUUUGUGAGGAUAUCAGUAGUAAAAUAAUAAAUAUACUACUGAGAAGGCACAUGAGGAUCACCCAUGUUCCUC [Mat - Exclusion 4 - Mod of Salish - D74] (puzzle: Exclusion 4)” is 35 nM.
Consider “CUUUUGUGAGGAUAUCAGUAGUAGAACAAUAGUACUACUACUGAGAAGGCACAUGAGGAUCACCCAUGUACCUC [Fiskers Ex 4 Super stable 44 mod 3] (puzzle: Exclusion 4)”, for which, under setting [1], the “apparent KD of MS2 coat protein” value turned out to be 18.8 nM.
Same read-out and setting: the figure for “CUUUUGUGAGGAUAUCAGUAGUAUAAAAAUAAAAUUACUACUGAGAAGGCACAUGAGGAUCACCCAUGUUCCUC [salish99_ex4_r3_017] (puzzle: Exclusion 4)” is 37.4 nM.
On to “CUUUUGUGAGGAUAUUAGUAGUUUAUAAUUGGUGUUAUUGCUGAGAAGGCACAUGAGGAUCACCCAUGUACAAC [JR_Ex4_Sub033] (Eterna round: R97, puzzle: Exclusion 4)”, for which the “apparent KD of MS2 coat protein” value reads like this: (input ligand: FMN 200 uM) 97.9 nM; (input ligand: none) 37 nM.
“CUUUUGUGAGGAUAUUUGUAGUAAAUAAAUAAAAUUACUACUGAGAAGGCACAUGAGGAUCACCCAUGUUCCUC [salish99_ex4_r3_042] (Eterna round: R96, puzzle: Exclusion 4)”: the “apparent KD of MS2 coat protein” value is 200 nM (input ligand: FMN 200 uM), 24.4 nM under setting [2] and 28.6 nM (input ligand: none).
As to “CUUUUGUGAGGAUAUUUGUAGUAAAUAAAUAAAAUUACUACUGAGAAGGCACAUGAGGAUCACCCAUGUUCCUC [salish99_ex4_r3_042] (puzzle: Exclusion 4)”, the “apparent KD of MS2 coat protein” value under setting [1] is 27.7 nM.
For “GAAAACGAAGAGGAUAUAUGAUAUCAAAGCUUCAUAGAAGGCUUCACAUGAGGAUCACCCAUGUGAUCUUCAAU [Mat - Exclusion 6 - JL Mod - D23] (Eterna round: R97, puzzle: Exclusion 6)”, the “apparent KD of MS2 coat protein” value reads like this: (input ligand: FMN 200 uM) 244 nM; (input ligand: none) 41.6 nM.
On to “GAAAACGCAGAGGAUAUUUCAGAUCAAAGCUGCAAAGAAGGCUGCACAUGAGGAUCACCCAUGUGGUCUCAAAA [Mod of Quesina 3 - Jieux - Exclusion 6] (Eterna round: R97, puzzle: Exclusion 6)”, for which the “apparent KD of MS2 coat protein” value runs as follows: (input ligand: FMN 200 uM) 422 nM; (input ligand: none) 33.6 nM.
On to “GAAAACGCUGAGGAUAUUUCUGAUCAAAGCAGCAAAGAAGGCAGCACAUGAGGAUCACCCAUGUGGUCUUCAAG [Mat - Exclusion 6 - JL Mod - D12] (Eterna round: R97, puzzle: Exclusion 6)”, for which the “apparent KD of MS2 coat protein” value was found to be 243 nM (input ligand: FMN 200 uM) and 44.7 nM (input ligand: none).
As to “GAAAACGUAGGAUAUUAAUACUCAGACAUGAGGAUCACCCAUGUUUGGUGGGUUUAAGAAUGAGAAGGGCGAUGAA [EX5 #6] (Eterna round: R97, puzzle: Exclusion 5)”, the “apparent KD of MS2 coat protein” value turned out to be 49 nM (input ligand: FMN 200 uM) and 49 nM (input ligand: none).
Take “GAAAACGUAGGAUAUUAAUACUUAUACAUGAGGAUCACCCAUGUUUGGUGGGUAAAAGAAUGAGAAGGGCGAUGAA [EX5 #9] (Eterna round: R97, puzzle: Exclusion 5)”: the “apparent KD of MS2 coat protein” value by setting is: (input ligand: FMN 200 uM) 392 nM; (input ligand: none) 425 nM.
The corresponding values for “GAAAAGGUAGAGGAUAUUUCAGAUCAAAGCUGCAAAGAAGGCUGCACAUGAGGAUCACCCAUGUGGUCAAUAAA [Mod of Quesina 12 - Jieux - Exclusion 6] (Eterna round: R97, puzzle: Exclusion 6)” are 59.7 nM and 20.9 nM.
Consider “GAAAAGGUAGGAUAUACGAAAAGAAAGGGUAGAAGAAGAACACAUGAGGAUCACCCAUGUAGAAGGACCAAAAG [Mat - Exclusion 2 - Mod of my Tesla design - D1] (puzzle: Exclusion 2)”, for which the “apparent KD of MS2 coat protein” value came out at 73.1 nM under setting [3], 18.5 nM under setting [1] and 16.5 nM under setting [4].
The corresponding values for “GAAAAGGUAGGAUAUCGAGACCAUAACAUGAGGAUCACCCAUGUGAUACCUACAGUGGUCCGAGAAGGACCAUAUA [Iserdianqu] (puzzle: Exclusion 5)” are 62.1 nM, 20.4 nM and 19.3 nM.
As to “GAAAAGUAAGGAUAUGUCCACAGUGAGGAAACUCACUGUGGACAGAAGGUACAUGAGGAUCACCCAUGUUCCUC [ExDelusion 4 - Jieux - Exclusion 4] (Eterna round: R97, puzzle: Exclusion 4)”, the “apparent KD of MS2 coat protein” value by setting is: (input ligand: FMN 200 uM) 577 nM; (input ligand: none) 44.2 nM.
“GAACUAAAGCAAAGCUUUAGUCGUACAUGAGGAUCACCCAUGUAGGAUAUGGUAGGCAAAGCAUACCAGAAGGACAGAGUGAUC [Mat - Exclusion NG 3 - Mod of JL - D63] (Eterna round: R96, puzzle: Exclusion NG 3)”: the “apparent KD of MS2 coat protein” value (input ligand: FMN 200 uM) stood at 211 nM, the “apparent KD of MS2 coat protein” value under setting [2] came out at 134 nM and the “apparent KD of MS2 coat protein” value (input ligand: none) came to 371 nM.
For “GAACUGAGGCAAAGCUUUAGUCGUACAUGAGGAUCACCCAUGUAGGAUAUGGUAGGCAAAGCAUACCAGAAGGACAGAGUGAUC [Mat - Exclusion NG 3 - Mod of JL - D61] (Eterna round: R96, puzzle: Exclusion NG 3)”, the “apparent KD of MS2 coat protein” value is, setting by setting: (input ligand: FMN 200 uM) 877 nM; under setting [2], 313 nM; (input ligand: none) 476 nM.
As to “GAAGAAGAGAGAAAAGAAAACAUGAGGAUCACCCAUGUGAGAAGAUGAGGGUGUAGCAGGCUUUAUGCUCGUCUUAU (puzzle: Sensor v3, turn-off variant 1)”, the “apparent KD of MS2 coat protein” value runs as follows: under setting [3], 27.5 nM; under setting [1], 78.5 nM; under setting [4], 27.9 nM.
The corresponding values for “GAAGAGACAGGAUAUACAUGAGGAUCACCCAUGUGAGGAGGAAGAGAGAGGAGAAGGAGUAGAAGGGUCAGAGG [JR_Exclu3_Sub028] (puzzle: Exclusion 3)” are 32.1 nM, 41.2 nM and 46.5 nM.
For “GAAGUUAGAGGAUAUACAUGAGGAUCACCCAUGUAUGAAGUUAACUUUGUAUAUAAAUGUAGAAGGCUAACUUC [-21.1, -19.6 kcal, 36% A] (Eterna round: R97, puzzle: Exclusion 3)”, the “apparent KD of MS2 coat protein” value (input ligand: FMN 200 uM) was 41.6 nM and the “apparent KD of MS2 coat protein” value (input ligand: none) stood at 25.6 nM.
On to “GAAUACAAGCAAAGAUCCUACAUGAGGAUCACCCAUGUGCUCGUCUUGUAAAGUACUAUCACGAAAGUGAUAGUACA [Mat - Sensor v3 - turn-off var 1 - Eli Mod - D78] (puzzle: Sensor v3, turn-off variant 1)”, for which the “apparent KD of MS2 coat protein” value by setting is: under setting [3], 76.7 nM; under setting [1], 16.9 nM; under setting [4], 60.1 nM.
“GACAUGUGAGGAUAUUGCAUAUAGUUAUAAGUUCAGGGCGGCAAGAAGGCACAUGAGGAUCACCCAUGUACCUU [Eternabot (L2) Solution 81] (Eterna round: R97, puzzle: Exclusion 4)”: the “apparent KD of MS2 coat protein” value came out at 18.7 nM (input ligand: FMN 200 uM) and 15.3 nM (input ligand: none).
For “GACGCUGACCGAGGAUAUACAAUAAAACAACAAACACCUCGUGUCAGAACAUGAGGAUCACCCAUGUAGAAGGCGGCAGGUCUA [Teateus] (Eterna round: R96, puzzle: Exclusion NG 2)”, under setting [2], the “apparent KD of MS2 coat protein” value was 31.6 nM.
Regarding “GACUAGAGAGGAUAUAUUUACAGUGUACCUCGGAUGAUCGCACUUGAGGAUCACCCAAGUAGAAGGCUCGAGGG [EX2 #29] (Eterna round: R97, puzzle: Exclusion 2)”, the “apparent KD of MS2 coat protein” value is, setting by setting: (input ligand: FMN 200 uM) 11 nM; (input ligand: none) 15.2 nM.
Regarding “GACUGCCGAGGAUAUACAUGAGGAUCACCCAUGUGCUUCAGUAUCGAAAGAUGCAUGGGUAGAAGGCGGUAGUC [LRO-Excl3-10] (Eterna round: R96, puzzle: Exclusion 3)”, the “apparent KD of MS2 coat protein” value (input ligand: FMN 200 uM) was 912 nM, the “apparent KD of MS2 coat protein” value under setting [2] amounted to 627 nM and the “apparent KD of MS2 coat protein” value (input ligand: none) turned out to be 1410 nM.

The record behind these values is the supplement of paper PMC9170038.
